Test results as given in US11634477 (dated 2023).
Positions count from the first letter of the chain named.

B1: C008 (antibody, V domains shown)
VH: EVQLVESGGGVVQPGRSLRLSCAASGFTFSSYGMHWVRQAPGKGLEWVTVISYDGRNKYYADSVKGRFTISRDNSKNTLYLQMNSLRAEDTAVYYCAREFGDPEWYFDYWGQGTLVTVSS
VL: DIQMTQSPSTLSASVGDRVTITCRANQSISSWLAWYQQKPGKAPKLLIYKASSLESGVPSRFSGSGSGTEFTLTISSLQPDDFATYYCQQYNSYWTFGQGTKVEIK
B2: C130 (antibody, V domains shown)
VH: QVQLVQSGAEVKKPGASVKVSCKASGYTFTNYYMHWVRQAPGQGLEWMGIINPSGGSTGYAQKFQGRVTMTRDTSTSTVYMELSSLRSEDTAVYYCARSRPTPDWYFDLWGRGTLVTVSS
VL: SYELTQPPSVSVAPGKTARITCGGNNIGSKSVHWYQQKPGQAPVLVIYYDSDRPSGIPERFSGSNSGNTATLTISRVEAGDEADYYCQVWDSSSDHPGVVFGGGTKLTVL
B3: C154 (antibody, V domains shown)
VH: QVQLVESGGGVVQPGRSLRLSCAASGFTFSRYGMHWVRQAPGKGLEWVAVMSYDGSSKYYADSVKGRFTISRDNSKNTLCLQMNSLRAEDTAVYYCAKQAGPYCSGGSCYSAPFDYWGQGTLVTVSS
VL: DIQMTQSPSSLSASVGDRVTITCQASQGISNYLNWYQQKPGKAPKLLIYDASNLETGVPSRFSGSGSGTDFTFTISSLQPEDIATYYCQQYDNLPITFGQGTRLEIK
B4: C022 (antibody, V domains shown)
VH: QVQLQESGPGLVKPSETLSVTCTVSGGSISSSRYYWGWIRQPPGKGLEWIGSIYYSGSTYYNPSLKSRVTISVDTSKNQFSLKLSSVTAADTAVYYCARHAAAYYDRSGYYFIEYFQHWGQGTLVTVSS
VL: DIQMTQSPSTLSASVGDSVTITCRASQSISSWLAWYQQKPGKAPKLLIYKASSLESGVPSRFSGSGSGTEFTLTISSLQPDDFATYYCQQYNNYRYTFGQGTKLEIK
B5: C215 (antibody, V domains shown)
VH: EVQLLESGGGLVQPGGSLRLSCAASGFTFSSYAMSWVRQAPGKGLEWVSAITDSGDGTFYADSVKGRFTISRDNSKNTLYLQMNSLRAEDTAVYYCASEEDYSNYVGWFDPWGQGTLVTVSS
VL: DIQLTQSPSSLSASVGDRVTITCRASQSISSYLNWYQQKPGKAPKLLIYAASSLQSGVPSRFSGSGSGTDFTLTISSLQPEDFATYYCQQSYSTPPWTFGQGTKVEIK
B6: C138 (antibody, V domains shown)
VH: EVQLVESGGGLVQPGGSLRLSCAASGFTFSTYWMSWVRQPPGKGLEWVANIKQDGSEKYYVDSVKGRFTISRDNAKNSLYLQMNSLRADDTAVYYCAGGTWLRSSFDYWGQGTLVTVSS
VL: NFMLTQPHSVSESPGKTVTISCTGSSGSIASNYVQWYQQRPGSAPTTVIYEDNQRPSGVPDRFSGSIDSSSNSASLTISGLKTEDEADYYCQSYDSSNWVFGGGTKLTVL
B7: C150 (antibody, V domains shown)
VH: EVQLVESGGGLVQPGGSLRLSCVASGFTFSSYWMHWVRQVPGKGPVWVSHINSEGSSTNYADSVRGRFTISRDNAKDTLYLQMNNLRAEDTAVYYCARPTAVAAAGNYFYYYGMDVWGQGTTVTVSS
VL: QSALTQPASVSGSPGQSITISCTGTSSDVGYYNFVSWYQQHPGKAPKLMIYEVSNRPSGVSNRFSGSKSGNTASLIISGLQAEDEADYYCSSYRSSSTLVFGGGTKLTVL
B8: C211 (antibody, V domains shown)
VH: EVQLVESGGGLVQPGGSLRLSCAASEFTVSSNYMSWVRQAPGKGLEWVSVIYSGGSTFYADSVKGRFTISRDNSKNTLYLQMNSLRPEDTAVYYCARDYGDFYFDFWGQGTLVTVSS
VL: EIVMTQSPATLSVSPGERATLSCRASQSVSSNLAWYQQKPGQGPRLLIYGASTRATGIPARFSGSGSGTEFTLTISSLQSEDFAVYYCQQYNNWPRTFGQGTKVEIK
B9: C103 (antibody, V domains shown)
VH: QVQLQQWGAGLLKPSETLSLTCAVSGGSLSGFYWTWIRQPPGKGLEWIGETNHFGSTGYKPSLKSRVTISVDMSRNQFSLKVTSVTAADTAVYYCARKPLLYSDFSPGAFDIWGQGTMVTVSS
VL: EIVLTQSPGTLSLSPGERATLSCRASQTVTANYLAWYQQKPGQAPRLLIYGASKRATGIPDRFSGSGSGTDFTLSISRLEPEDFAVYYCQQYTTTPRTFGGGTKVEIK
B10: C104 (antibody, V domains shown)
VH: QVQLQQWGAGLLKPSETLSLSCAVYGGSLSGYYWSWIRQPPGKGLEWIGEINHFGSTGYNPSLKSRVTISVDTSKSQFSVKLSSVTAADTAVYYCARKPLLYSNLSPGAFDIWGQGTMVTVSS
VL: B9 VL with L11V, R24W, T28S, T30S, N32S, K54S, S75T, T93G
B11: C009 (antibody, V domains shown)
VH: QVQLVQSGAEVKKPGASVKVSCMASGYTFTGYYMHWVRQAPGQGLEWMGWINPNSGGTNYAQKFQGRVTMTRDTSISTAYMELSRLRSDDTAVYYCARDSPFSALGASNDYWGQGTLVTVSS
VL: QSALTQPPSASGSPGQSVTISCTGTSSDVGGYNYVSWYQQHPGKAPKLMIYEVSKRPSGVPDRFSGSKSGNTASLTVSGLQAEDEAEYYCSSDAGSNNVVFGGGTKLTVL

target: SARS-CoV RBD (SARS-CoV, UniProt P59594); experiment: ELISA

Row | Binder | EC50 [ng/mL]
1 | B1 | > 1000
2 | B2 | > 1000
3 | B3 | 10.7
4 | B4 | 5.99
5 | B5 | 17.9
6 | B6 | > 1000
7 | B7 | > 1000
8 | B8 | > 1000
9 | B9 | > 1000
10 | B10 | > 1000
11 | B11 | > 1000

target: SARS-CoV-2 RBD (SARS-CoV-2, UniProt P0DTC2); experiment: ELISA

Row | Binder | EC50 [ng/mL]
12 | B1 | 4.63
13 | B2 | 2.05
14 | B3 | 2.92
15 | B4 | 2.4
16 | B5 | 5.33
17 | B6 | 2.94
18 | B7 | 8.11
19 | B8 | 2.82
20 | B9 | 3.77
21 | B10 | 8.31
22 | B11 | 1.8
